Results on 1 molecule are retold here after US20130323263A1, “SPARC ANGIOGENIC DOMAIN AND METHODS OF USE” (ABRAXIS BIOSCIENCE, LLC, priority 2010, published 2013).

For assay [1], the system named is HUVEC. Put plainly: HUVEC (3-D) tube formation assay. Format: cell-based. The settings on record: for angiogenic activity: FIG. 2. The method, then:
(§1) Recombinant human SPARC and genetically engineered variants were expressed and purified using HEK 293 cells maintained in hollow fiber bio-reactors. The angiogenic activity of rhSPARC and its variants was evaluated using a HUVEC tube formation assay and a HUVEC sprout formation bead assay.
(§2) In the HUVEC tube formation assay, rhSPARC was pro-angiogenic at 10 μg/mL and anti-angiogenic at 100 μg/mL. […] Additional rhSPARC variants with deletions and single/double amino acid substitutions tested in these assays included: Q3 deletion (BIO2), an inversion of the putative angiogenic domain (BIOS), a double K>Q substitution in the proposed angiogenic domain (BIO11), the genetic ablation of the putative catephsin K recognition sites (BIO8), and a proteolytic degradation product of rhSPARC. Terminal amino acid analysis indicated the angiogenic activity is localized to SEQ ID NO: 1.

In assay [2] the test system is HUVEC. Put plainly: HUVEC sprout formation bead assay. Format: cell-based. As to the method:
as §1, §2

B1: rhSPARC: Recombinant human SPARC expressed and purified using HEK 293 cells (protein, UniProt P09486 18-303, looked up)
SPARC: APQQEALPDETEVVEETVAEVTEVSVGANPVQVEVGEFDDGAEETEEEVVAENPCQNHHCKHGKVCELDENNTPMCVCQDPTSCPAPIGEFEKVCSNDNKTFDSSCHFFATKCTLEGTKKGHKLHLDYIGPCKYIPPCLDSELTEFPLRMRDWLKNVLVTLYERDEDNNLLTEKQKLRVKKIHENEKRLEAGDHPVELLARDFEKNYNMYIFPVHWQFGQLDQHPIDGYLSHTELAPLRAPLIPMEHCTTRFFETCDLDNDKYIALDEWAGCFGIKQKDIDKDLVI
As to B1, in the assay with HUVEC [1] (HUVEC 3-D tube formation, concentrations up to 100 ug/ml, FIG. 4), the “angiogenic behavior over concentration” value is “increases as the concentration approaches 10 ug/ml and drops off as it approaches 100 ug/ml”. For the same molecule, the angiogenic activity entry with HUVEC [1] (at 10 μg/mL) is on record as “pro-angiogenic”; in the assay with HUVEC [1] (at 100 μg/mL), “anti-angiogenic”. The “blood vessel maturity on addition of the protein” value in the assay with HUVEC [2] was “more mature blood vessels well supported by pericytes”.
